Measured values reported in patent US20210388087A1.

Target: Human CD137 ECD (human)
Test: single mutant vs template dBBDu183H

Human CD137 ECD (human), sequence (chain, as listed by the source limits assumed): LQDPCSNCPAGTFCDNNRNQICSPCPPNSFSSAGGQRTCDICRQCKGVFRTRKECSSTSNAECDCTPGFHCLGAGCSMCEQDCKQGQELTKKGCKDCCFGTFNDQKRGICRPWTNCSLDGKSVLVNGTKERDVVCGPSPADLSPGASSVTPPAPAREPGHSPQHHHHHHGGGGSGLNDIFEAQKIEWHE

| fold change of affinity [fold] | Binder |
| --- | --- |
| 0 | H183/L072 VH H35D (antibody, name in Kabat numbering, V domains shown) VH: QVQLVESGGGLVQPGRSLRLSCAASGFTFSNAWMDWVRQAPGKGLEWVAQIKDKGNAYAAYYAPSVKGRFTISRDDSKNSIYLQMNSLKTEDTAVYYCHYVHYASASTVLPAFGVDAWGQGTTVTVSS VL: DIVMTQSPLSLPVTPGEPASISCQASQELVHMNRNTYLHWYQQKPGQAPRLLIYKVSNRFPGVPDRFSGSGSGTDFTLKISRVEAEDVGVYYCAQGTSVPFTFGQGTKLEIK |
| 0 | H183/L072 VH I51D (antibody, name in Kabat numbering, V domains shown) VH: QVQLVESGGGLVQPGRSLRLSCAASGFTFSNAWMHWVRQAPGKGLEWVAQDKDKGNAYAAYYAPSVKGRFTISRDDSKNSIYLQMNSLKTEDTAVYYCHYVHYASASTVLPAFGVDAWGQGTTVTVSS VL: DIVMTQSPLSLPVTPGEPASISCQASQELVHMNRNTYLHWYQQKPGQAPRLLIYKVSNRFPGVPDRFSGSGSGTDFTLKISRVEAEDVGVYYCAQGTSVPFTFGQGTKLEIK |
| 0 | H183/L072 VH K52H (antibody, name in Kabat numbering, V domains shown) VH: QVQLVESGGGLVQPGRSLRLSCAASGFTFSNAWMHWVRQAPGKGLEWVAQIHDKGNAYAAYYAPSVKGRFTISRDDSKNSIYLQMNSLKTEDTAVYYCHYVHYASASTVLPAFGVDAWGQGTTVTVSS VL: DIVMTQSPLSLPVTPGEPASISCQASQELVHMNRNTYLHWYQQKPGQAPRLLIYKVSNRFPGVPDRFSGSGSGTDFTLKISRVEAEDVGVYYCAQGTSVPFTFGQGTKLEIK |
| 0 | H183/L072 VH M34E (antibody, name in Kabat numbering, V domains shown) VH: QVQLVESGGGLVQPGRSLRLSCAASGFTFSNAWEHWVRQAPGKGLEWVAQIKDKGNAYAAYYAPSVKGRFTISRDDSKNSIYLQMNSLKTEDTAVYYCHYVHYASASTVLPAFGVDAWGQGTTVTVSS VL: DIVMTQSPLSLPVTPGEPASISCQASQELVHMNRNTYLHWYQQKPGQAPRLLIYKVSNRFPGVPDRFSGSGSGTDFTLKISRVEAEDVGVYYCAQGTSVPFTFGQGTKLEIK |
| 0 | H183/L072 VH D52aH (antibody, name in Kabat numbering, V domains shown) VH: QVQLVESGGGLVQPGRSLRLSCAASGFTFSNAWMHWVRQAPGKGLEWVAQIKHKGNAYAAYYAPSVKGRFTISRDDSKNSIYLQMNSLKTEDTAVYYCHYVHYASASTVLPAFGVDAWGQGTTVTVSS VL: DIVMTQSPLSLPVTPGEPASISCQASQELVHMNRNTYLHWYQQKPGQAPRLLIYKVSNRFPGVPDRFSGSGSGTDFTLKISRVEAEDVGVYYCAQGTSVPFTFGQGTKLEIK |
| 0 | H183/L072 VH F29E (antibody, name in Kabat numbering, V domains shown) VH: QVQLVESGGGLVQPGRSLRLSCAASGFTESNAWMHWVRQAPGKGLEWVAQIKDKGNAYAAYYAPSVKGRFTISRDDSKNSIYLQMNSLKTEDTAVYYCHYVHYASASTVLPAFGVDAWGQGTTVTVSS VL: DIVMTQSPLSLPVTPGEPASISCQASQELVHMNRNTYLHWYQQKPGQAPRLLIYKVSNRFPGVPDRFSGSGSGTDFTLKISRVEAEDVGVYYCAQGTSVPFTFGQGTKLEIK |
| 0 | H183/L072 VH F29H (antibody, name in Kabat numbering, V domains shown) VH: QVQLVESGGGLVQPGRSLRLSCAASGFTHSNAWMHWVRQAPGKGLEWVAQIKDKGNAYAAYYAPSVKGRFTISRDDSKNSIYLQMNSLKTEDTAVYYCHYVHYASASTVLPAFGVDAWGQGTTVTVSS VL: DIVMTQSPLSLPVTPGEPASISCQASQELVHMNRNTYLHWYQQKPGQAPRLLIYKVSNRFPGVPDRFSGSGSGTDFTLKISRVEAEDVGVYYCAQGTSVPFTFGQGTKLEIK |
| 0 | H183/L072 VH K52E (antibody, name in Kabat numbering, V domains shown) VH: QVQLVESGGGLVQPGRSLRLSCAASGFTFSNAWMHWVRQAPGKGLEWVAQIEDKGNAYAAYYAPSVKGRFTISRDDSKNSIYLQMNSLKTEDTAVYYCHYVHYASASTVLPAFGVDAWGQGTTVTVSS VL: DIVMTQSPLSLPVTPGEPASISCQASQELVHMNRNTYLHWYQQKPGQAPRLLIYKVSNRFPGVPDRFSGSGSGTDFTLKISRVEAEDVGVYYCAQGTSVPFTFGQGTKLEIK |
| 0 | H183/L072 VH N53H (antibody, name in Kabat numbering, V domains shown) VH: QVQLVESGGGLVQPGRSLRLSCAASGFTFSNAWMHWVRQAPGKGLEWVAQIKDKGHAYAAYYAPSVKGRFTISRDDSKNSIYLQMNSLKTEDTAVYYCHYVHYASASTVLPAFGVDAWGQGTTVTVSS VL: DIVMTQSPLSLPVTPGEPASISCQASQELVHMNRNTYLHWYQQKPGQAPRLLIYKVSNRFPGVPDRFSGSGSGTDFTLKISRVEAEDVGVYYCAQGTSVPFTFGQGTKLEIK |
| 0 | H183/L072 VH I51H (antibody, name in Kabat numbering, V domains shown) VH: QVQLVESGGGLVQPGRSLRLSCAASGFTFSNAWMHWVRQAPGKGLEWVAQHKDKGNAYAAYYAPSVKGRFTISRDDSKNSIYLQMNSLKTEDTAVYYCHYVHYASASTVLPAFGVDAWGQGTTVTVSS VL: DIVMTQSPLSLPVTPGEPASISCQASQELVHMNRNTYLHWYQQKPGQAPRLLIYKVSNRFPGVPDRFSGSGSGTDFTLKISRVEAEDVGVYYCAQGTSVPFTFGQGTKLEIK |
| 0 | H183/L072 VH N53D (antibody, name in Kabat numbering, V domains shown) VH: QVQLVESGGGLVQPGRSLRLSCAASGFTFSNAWMHWVRQAPGKGLEWVAQIKDKGDAYAAYYAPSVKGRFTISRDDSKNSIYLQMNSLKTEDTAVYYCHYVHYASASTVLPAFGVDAWGQGTTVTVSS VL: DIVMTQSPLSLPVTPGEPASISCQASQELVHMNRNTYLHWYQQKPGQAPRLLIYKVSNRFPGVPDRFSGSGSGTDFTLKISRVEAEDVGVYYCAQGTSVPFTFGQGTKLEIK |
| 0 | H183/L072 VH W33H (antibody, name in Kabat numbering, V domains shown) VH: QVQLVESGGGLVQPGRSLRLSCAASGFTFSNAHMHWVRQAPGKGLEWVAQIKDKGNAYAAYYAPSVKGRFTISRDDSKNSIYLQMNSLKTEDTAVYYCHYVHYASASTVLPAFGVDAWGQGTTVTVSS VL: DIVMTQSPLSLPVTPGEPASISCQASQELVHMNRNTYLHWYQQKPGQAPRLLIYKVSNRFPGVPDRFSGSGSGTDFTLKISRVEAEDVGVYYCAQGTSVPFTFGQGTKLEIK |
| 0 | H183/L072 VH D52aE (antibody, name in Kabat numbering, V domains shown) VH: QVQLVESGGGLVQPGRSLRLSCAASGFTFSNAWMHWVRQAPGKGLEWVAQIKEKGNAYAAYYAPSVKGRFTISRDDSKNSIYLQMNSLKTEDTAVYYCHYVHYASASTVLPAFGVDAWGQGTTVTVSS VL: DIVMTQSPLSLPVTPGEPASISCQASQELVHMNRNTYLHWYQQKPGQAPRLLIYKVSNRFPGVPDRFSGSGSGTDFTLKISRVEAEDVGVYYCAQGTSVPFTFGQGTKLEIK |
| 0 | H183/L072 VH H35E (antibody, name in Kabat numbering, V domains shown) VH: QVQLVESGGGLVQPGRSLRLSCAASGFTFSNAWMEWVRQAPGKGLEWVAQIKDKGNAYAAYYAPSVKGRFTISRDDSKNSIYLQMNSLKTEDTAVYYCHYVHYASASTVLPAFGVDAWGQGTTVTVSS VL: DIVMTQSPLSLPVTPGEPASISCQASQELVHMNRNTYLHWYQQKPGQAPRLLIYKVSNRFPGVPDRFSGSGSGTDFTLKISRVEAEDVGVYYCAQGTSVPFTFGQGTKLEIK |
| 0 | H183/L072 VH K52D (antibody, name in Kabat numbering, V domains shown) VH: QVQLVESGGGLVQPGRSLRLSCAASGFTFSNAWMHWVRQAPGKGLEWVAQIDDKGNAYAAYYAPSVKGRFTISRDDSKNSIYLQMNSLKTEDTAVYYCHYVHYASASTVLPAFGVDAWGQGTTVTVSS VL: DIVMTQSPLSLPVTPGEPASISCQASQELVHMNRNTYLHWYQQKPGQAPRLLIYKVSNRFPGVPDRFSGSGSGTDFTLKISRVEAEDVGVYYCAQGTSVPFTFGQGTKLEIK |
| 0 | H183/L072 VH N31E (antibody, name in Kabat numbering, V domains shown) VH: QVQLVESGGGLVQPGRSLRLSCAASGFTFSEAWMHWVRQAPGKGLEWVAQIKDKGNAYAAYYAPSVKGRFTISRDDSKNSIYLQMNSLKTEDTAVYYCHYVHYASASTVLPAFGVDAWGQGTTVTVSS VL: DIVMTQSPLSLPVTPGEPASISCQASQELVHMNRNTYLHWYQQKPGQAPRLLIYKVSNRFPGVPDRFSGSGSGTDFTLKISRVEAEDVGVYYCAQGTSVPFTFGQGTKLEIK |
| 0 | H183/L072 VH I51E (antibody, name in Kabat numbering, V domains shown) VH: QVQLVESGGGLVQPGRSLRLSCAASGFTFSNAWMHWVRQAPGKGLEWVAQEKDKGNAYAAYYAPSVKGRFTISRDDSKNSIYLQMNSLKTEDTAVYYCHYVHYASASTVLPAFGVDAWGQGTTVTVSS VL: DIVMTQSPLSLPVTPGEPASISCQASQELVHMNRNTYLHWYQQKPGQAPRLLIYKVSNRFPGVPDRFSGSGSGTDFTLKISRVEAEDVGVYYCAQGTSVPFTFGQGTKLEIK |
| 0 | H183/L072 VH W33E (antibody, name in Kabat numbering, V domains shown) VH: QVQLVESGGGLVQPGRSLRLSCAASGFTFSNAEMHWVRQAPGKGLEWVAQIKDKGNAYAAYYAPSVKGRFTISRDDSKNSIYLQMNSLKTEDTAVYYCHYVHYASASTVLPAFGVDAWGQGTTVTVSS VL: DIVMTQSPLSLPVTPGEPASISCQASQELVHMNRNTYLHWYQQKPGQAPRLLIYKVSNRFPGVPDRFSGSGSGTDFTLKISRVEAEDVGVYYCAQGTSVPFTFGQGTKLEIK |
| 0 | H183/L072 VH G26K (antibody, name in Kabat numbering, V domains shown) VH: QVQLVESGGGLVQPGRSLRLSCAASKFTFSNAWMHWVRQAPGKGLEWVAQIKDKGNAYAAYYAPSVKGRFTISRDDSKNSIYLQMNSLKTEDTAVYYCHYVHYASASTVLPAFGVDAWGQGTTVTVSS VL: DIVMTQSPLSLPVTPGEPASISCQASQELVHMNRNTYLHWYQQKPGQAPRLLIYKVSNRFPGVPDRFSGSGSGTDFTLKISRVEAEDVGVYYCAQGTSVPFTFGQGTKLEIK |
| 0 | H183/L072 VH N53E (antibody, name in Kabat numbering, V domains shown) VH: QVQLVESGGGLVQPGRSLRLSCAASGFTFSNAWMHWVRQAPGKGLEWVAQIKDKGEAYAAYYAPSVKGRFTISRDDSKNSIYLQMNSLKTEDTAVYYCHYVHYASASTVLPAFGVDAWGQGTTVTVSS VL: DIVMTQSPLSLPVTPGEPASISCQASQELVHMNRNTYLHWYQQKPGQAPRLLIYKVSNRFPGVPDRFSGSGSGTDFTLKISRVEAEDVGVYYCAQGTSVPFTFGQGTKLEIK |
| 0 | H183/L072 VH K52bD (antibody, name in Kabat numbering, V domains shown) VH: QVQLVESGGGLVQPGRSLRLSCAASGFTFSNAWMHWVRQAPGKGLEWVAQIKDDGNAYAAYYAPSVKGRFTISRDDSKNSIYLQMNSLKTEDTAVYYCHYVHYASASTVLPAFGVDAWGQGTTVTVSS VL: DIVMTQSPLSLPVTPGEPASISCQASQELVHMNRNTYLHWYQQKPGQAPRLLIYKVSNRFPGVPDRFSGSGSGTDFTLKISRVEAEDVGVYYCAQGTSVPFTFGQGTKLEIK |
